Measurements as given in US20250297009A1.

What was measured:
[1] = target: Human TGF-β1 (Acrobiosystems, TG1-H421) (human) (UniProt P01137); assay: ELISA, human TGF-β1 coated, mouse anti-human Fc-HRP detection
[2] = target: Human TGF-β3 (PeproTech, 100-36E) (human) (UniProt P10600); assay: ELISA, human TGF-β3 coated, mouse anti-human Fc-HRP detection
Human TGF-β3 (PeproTech, 100-36E) (human), sequence (P10600 301-412 limits assumed): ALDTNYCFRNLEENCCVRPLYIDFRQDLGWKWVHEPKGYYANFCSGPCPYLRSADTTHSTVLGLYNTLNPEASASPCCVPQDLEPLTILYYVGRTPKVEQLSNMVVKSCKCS

Human TGF-β1 (Acrobiosystems, TG1-H421) (human), sequence (P01137 279-390 limits assumed): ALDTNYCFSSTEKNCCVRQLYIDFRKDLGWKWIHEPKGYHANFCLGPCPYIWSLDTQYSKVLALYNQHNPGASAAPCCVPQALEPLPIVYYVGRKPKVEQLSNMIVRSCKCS

EC50 (read off the curve) [1]: 0.3 nM
EC50 (read off the curve) [2]: 0.2 nM
Substance: TGF-βRII (Fc fusion)
